For the experiment, the target named is full-length GST-tagged SARS-CoV-2 Nucleocapsid (N) protein (SARS-CoV-2, UniProt P0DTC9 1-419). The experiment is described as follows: pull-down.

B1: human UPF2 truncated construct lacking 120 and 45 residues at the N- and C-termini (domain or fragment)
chain: MKEKEESIQLHQEAWERHHLRKELRSKNQNAPDSRPEENFFSRLDSSLKKNTAFVKKLKTITEQQRDSLSHDFNGLNLSKYIAEAVASIVEAKLKISDVNCAVHLCSLFHQRYADFAPSLLQVWKKHFEARKEEKTPNITKLRTDLRFIAELTIVGIFTDKEGLSLIYEQLKNIINADRESHTHVSVVISFCRHCGDDIAGLVPRKVKSAAEKFNLSFPPSEIISPEKQQPFQNLLKEYFTSLTKHLKRDHRELQNTERQNRRILHSKGELSEDRHKQYEEFAMSYQKLLANSQSLADLLDENMPDLPQDKPTPEEHGPGIDIFTPGKPGEYDLEGGIWEDEDARNFYENLIDLKAFVPAILFKDNEKSCQNKESNKDDTKEAKESKENKEVSSPDDLELELENLEINDDTLELEGGDEAEDLTKKLLDEQEQEDEEASTGSHLKLIVDAFLQQLPNCVNRDLIDKAAMDFCMNMNTKANRKKLVRALFIVPRQRLDLLPFYARLVATLHPCMSDVAEDLCSMLRGDFRFHVRKKDQINIETKNKTVRFIGELTKFKMFTKNDTLHCLKMLLSDFSHHHIEMACTLLETCGRFLFRSPESHLRTSVLLEQMMRKKQAMHLDARYVTMVENAYYYCNPPPAEKTVKKKRPPLQEYVRKLLYKDLSKVTTEKVLRQMRKLPWQDQEVKDYVICCMINIWNVKYNSIHCVANLLAGLVLYQEDVGIHVVDGVLEDIRLGMEVNQPKFNQRRISSAKFLGELYNYRMVESAVIFRTLYSFTSFGVNPDGSPSSLDPPEHLFRIRLVCTILDTCGQYFDRGSSKRKLDCFLVYFQRYVWWKKSLEVWTKDHPFPIDIDYMISDTLELLRPKIKLCNSLEESIRQVQDLEREFLIKLGLVNDKDSKDSMTEGENLEEDEEEEEGGAETEEQSGNESEVNEPEEEEGSDNDDDEGEEEEEENTDYLTDSNKENETDEENTEVMIKGGGLKHVPCVEDEDFIQALDKMMLENLQQRSGESVKVHQLDVAIPLHLKSQLRKGPPLGGGEGEAESADTMPFVMLTRKGNKQQFKILNVPMSSQLAANHWNQQQAEQEERMRMKKLTLDINERQEQED
Take B1: the binding result is “binds”.
